In patent US7335722 (FOOD INDUSTRY RESEARCH AND DEVELOPMENT INSTITUTE, dated 2008):

T1: Angiotensin converting enzyme (ACE)
T1 sequence (F1RRW5 whole entry, species assumed, looked up): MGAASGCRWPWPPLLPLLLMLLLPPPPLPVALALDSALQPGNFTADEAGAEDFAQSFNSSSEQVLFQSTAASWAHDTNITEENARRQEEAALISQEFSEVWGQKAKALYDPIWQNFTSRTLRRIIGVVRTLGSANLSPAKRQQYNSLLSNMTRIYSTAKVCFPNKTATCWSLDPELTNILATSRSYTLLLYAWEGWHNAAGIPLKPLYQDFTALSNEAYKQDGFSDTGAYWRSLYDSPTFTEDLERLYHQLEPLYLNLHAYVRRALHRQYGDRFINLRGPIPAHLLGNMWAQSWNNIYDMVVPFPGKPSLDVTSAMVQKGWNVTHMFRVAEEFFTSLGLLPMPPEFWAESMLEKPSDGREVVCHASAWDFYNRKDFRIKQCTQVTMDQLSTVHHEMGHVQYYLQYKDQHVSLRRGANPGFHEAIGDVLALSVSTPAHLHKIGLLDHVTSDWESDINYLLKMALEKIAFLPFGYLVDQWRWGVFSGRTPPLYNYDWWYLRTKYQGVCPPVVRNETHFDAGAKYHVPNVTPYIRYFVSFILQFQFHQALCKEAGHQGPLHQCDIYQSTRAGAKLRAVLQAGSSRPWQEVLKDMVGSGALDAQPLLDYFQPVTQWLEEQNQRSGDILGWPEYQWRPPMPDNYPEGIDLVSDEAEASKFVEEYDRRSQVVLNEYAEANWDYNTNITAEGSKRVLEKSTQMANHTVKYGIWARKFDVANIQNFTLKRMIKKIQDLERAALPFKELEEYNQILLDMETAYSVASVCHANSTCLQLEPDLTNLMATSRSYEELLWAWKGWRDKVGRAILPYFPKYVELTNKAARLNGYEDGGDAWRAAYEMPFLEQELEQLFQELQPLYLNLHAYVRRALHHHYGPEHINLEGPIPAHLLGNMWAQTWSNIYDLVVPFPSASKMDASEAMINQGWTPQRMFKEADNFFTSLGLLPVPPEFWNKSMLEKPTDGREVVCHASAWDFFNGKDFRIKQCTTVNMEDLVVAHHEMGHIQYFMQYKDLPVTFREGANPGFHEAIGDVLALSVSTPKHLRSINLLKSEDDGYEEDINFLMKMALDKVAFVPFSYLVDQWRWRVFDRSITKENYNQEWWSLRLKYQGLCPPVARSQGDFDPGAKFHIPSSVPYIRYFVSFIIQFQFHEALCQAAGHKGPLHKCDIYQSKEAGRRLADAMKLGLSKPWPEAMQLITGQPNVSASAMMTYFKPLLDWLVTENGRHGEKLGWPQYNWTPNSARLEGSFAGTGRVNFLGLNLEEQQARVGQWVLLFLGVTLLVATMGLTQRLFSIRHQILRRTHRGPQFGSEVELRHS


Target: T1, Angiotensin converting enzyme (ACE)
Assay: cell-based or functional assay

Row | ACE inhibitory activity (IC50) | Binder
1 | 172 µM | ILPP [Ile-Leu-Pro-Pro (ILPP)]
2 | 97 µM | VLPP [Val-Leu-Pro-Pro (VLPP)]
